Assay results published in PMC12176259, “Bacterial transcriptional repressor NrdR – a flexible multifactorial nucleotide sensor”.

T1: NrdR (EcoNrdR) (Escherichia coli K-12 MG1655, UniProt P0A8D0 1-149)
T1 sequence: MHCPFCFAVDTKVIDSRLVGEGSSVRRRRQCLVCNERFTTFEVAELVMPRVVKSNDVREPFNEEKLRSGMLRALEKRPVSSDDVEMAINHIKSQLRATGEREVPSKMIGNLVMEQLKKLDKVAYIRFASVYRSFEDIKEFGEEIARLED

B1: EcoEF7,3 (dsDNA)
DNA 1: GCACTATTTGCTATATATTGTGTGGTTGAATCTTTTTTCAACTACATCTAGTATCTC
DNA 2: GAGATACTAGATGTAGTTGAAAAAAGATTCAACCACACAATATATAGCAAATAGTGC
B2: ribX promoter (dsDNA)
DNA 1: AGCATCGATCCTTTATCTCAAAAGCGTTGCGCCTTTGTTGTATCGTCAGTTCAGGGT
DNA 2: ACCCTGAACTGACGATACAACAAAGGCGCAACGCTTTTGAGATAAAGGATCGATGCT

What was measured:
NrdR (EcoNrdR) [1] = molecular target: T1, NrdR (EcoNrdR); assay: cryo-EM structure (4 A); ATP + dATP 0.5 mM each, 5 mM Mg2+, Zn2+; NrdR tetramer; MST: 17 mM Tris-HCl pH 8.6, 100 mM NaCl, 7 mM MgCl2, 0.33 mM TCEP, 0.025% Tween-20, nucleotides 1 mM each, 5 nM Cy5-DNA, room temperature; conditions: protein: recombinant; tags: C-terminal His6; chain copies: 4; blunt
NrdR (EcoNrdR) [2] = molecular target: T1, NrdR (EcoNrdR); assay: MST; ATP + dATP; MST: 17 mM Tris-HCl pH 8.6, 100 mM NaCl, 7 mM MgCl2, 0.33 mM TCEP, 0.025% Tween-20, nucleotides 1 mM each, 5 nM Cy5-DNA, room temperature; conditions: protein: recombinant; tags: C-terminal His6; chain copies: 4; label: 5'-Cy5 sense strand; blunt

Binder	binding result (NrdR (EcoNrdR) [1])	binding result (NrdR (EcoNrdR) [2])
B1	binds	
B2		no binding
